In PMC11626777:

B1: HDAC5: OSMI-1 (protein)
parent chain: MNSPNESDGMSGREPSLGILPRTPLHSIPVAVEVKPVLPGAMPSSMGGGGGGSPSPVELRGALAGPMDPALREQQLQQELLVLKQQQQLQKQLLFAEFQKQHDHLTRQHEVQLQKHLKQQQEMLAAKRQQELEQQRQREQQRQEELEKQRLEQQLLILRNKEKSKESAIASTEVKLRLQEFLLSKSKEPTPGGLNHSLPQHPKCWGAHHASLDQSSPPQSGPPGTPPSYKLPLLGPYDSRDDFPLRKTASEPNLKVRSRLKQKVAERRSSPLLRRKDGTVISTFKKRAVEITGTGPGVSSVCNSAPGSGPSSPNSSHSTIAENGFTGSVPNIPTEMIPQHRALPLDSSPNQFSLYTSPSLPNISLGLQATVTVTNSHLTASPKLSTQQEAERQALQSLRQGGTLTGKFMSTSSIPGCLLGVALEGDTSPHGHASLLQHVCSWTGRQQSTLIAVPLHGQSPLVTGERVATSMRTVGKLPRHRPLSRTQSSPLPQSPQALQQLVMQQQHQQFLEKQKQQQMQLGKILTKTGELSRQPTTHPEETEEELTEQQEALLGEGALTIPREGSTESESTQEDLEEEEEEEEEEEEDCIQVKDEDGESGPDEGPDLEESSAGYKKLFADAQQLQPLQVYQAPLSLATVPHQALGRTQSSPAAPGSMKSPTDQPTVVKHLFTTGVVYDTFMLKHQCMCGNTHVHPEHAGRIQSIWSRLQETGLLGKCERIRGRKATLDEIQTVHSEYHTLLYGTSPLNRQKLDSKKLLGPISQKMYAMLPCGGIGVDSDTVWNEMHSSSAVRMAVGCLVELAFKVAAGELKNGFAIIRPPGHHAEESTAMGFCFFNSVAITAKLLQQKLSVGKVLIVDWDIHHGNGTQQAFYNDPSVLYISLHRYDNGNFFPGSGAPEEVGGGPGVGYNVNVAWTGGVDPPIGDVEYLTAFRTVVMPIAQEFSPDVVLVSAGFDAVEGHLSPLGGYSVTARCFGHLTRQLMTLAGGRVVLALEGGHDLTAICDASEACVSALLSVELQPLDEAVLQQKPSVNAVATLEKVIEIQSKHWSCVQRFAAGLGCSLREAQTGEKEEAETVSAMALLSVGAEQAQAVATQEHSPRPAEEPMEQEPAL
B2: HDAC5: Ogtfl/fl; Bglap-Cre (Ogt cKO) (protein)
parent chain: B1 parent chain

Columns and labels:
[1] = western blot of HDAC5 protein, mBMSCs; conditions: glycan lost; control: DMSO
[2] = HDAC5 protein level in bone tissue; conditions: glycan lost; control: Ogtfl/fl mice

Protein	expression_or_secretion [1]	expression_or_secretion [2]
B1	increases	
B2		increases
